Test results from the RNAGym collection of RNA variant scans (doi:10.1021/acssynbio.7b00057).

B1: Pistol ribozyme (parent)
chain: GGGUCGUUGUUCCAUAAUCGCGUGGAUAUGGCACGCAAGUUUCUACCGGGCACCGUAAAUGUCCGACUGGAGCCGUUCGGGCGGCUAUAAACAGACCUCAGGCCCGAAGCGUGGCGGCACCUGCCGCCGGUGGUAAAAAAGAUCGGAAGAGCACACGUCU

Variants of: B1
Assay: aptazyme ON/OFF ratio, guanine; higher = stronger switching; co-transcriptional cleavage with and without guanine

Variant | aptazyme ON/OFF ratio
GGGUCGCUGUACGAUAAUCGCGUGGAUAUGGCACGCAAGUUUCUACCGGGCACCGUAAAUGUCCGACUGGAGCCGUUCGGGCGGCUAUAAACAGACCUCAGGCCCGAAGCGUGGCGGCACCUGCCGCCGGUGGUAAAAAAGAUCGGAAGAGCACACGUCU [U7C U11A C13G] | 1.04
GGGUCGCUGUACUAUAAUCGCGUGGAUAUGGCACGCAAGUUUCUACCGGGCACCGUAAAUGUCCGACUGGAGCCGUUCGGGCGGCUAUAAACAGACCUCAGGCCCGAAGCGUGGCGGCACCUGCCGCCGGUGGUAAAAAAGAUCGGAAGAGCACACGUCU [U7C U11A C13U] | 1.23
GGGUCGCUGUACAAUAAUCGCGUGGAUAUGGCACGCAAGUUUCUACCGGGCACCGUAAAUGUCCGACUGGAGCCGUUCGGGCGGCUAUAAACAGACCUCAGGCCCGAAGCGUGGCGGCACCUGCCGCCGGUGGUAAAAAAGAUCGGAAGAGCACACGUCU [U7C U11A C13A] | 1.21
GGGUCGCUGUCAGAUAAUCGCGUGGAUAUGGCACGCAAGUUUCUACCGGGCACCGUAAAUGUCCGACUGGAGCCGUUCGGGCGGCUAUAAACAGACCUCAGGCCCGAAGCGUGGCGGCACCUGCCGCCGGUGGUAAAAAAGAUCGGAAGAGCACACGUCU [U7C U11C C12A C13G] | 1.28
GGGUCGCUGUCAAAUAAUCGCGUGGAUAUGGCACGCAAGUUUCUACCGGGCACCGUAAAUGUCCGACUGGAGCCGUUCGGGCGGCUAUAAACAGACCUCAGGCCCGAAGCGUGGCGGCACCUGCCGCCGGUGGUAAAAAAGAUCGGAAGAGCACACGUCU [U7C U11C C12A C13A] | 1.27
GGGUCGCUGUCAUAUAAUCGCGUGGAUAUGGCACGCAAGUUUCUACCGGGCACCGUAAAUGUCCGACUGGAGCCGUUCGGGCGGCUAUAAACAGACCUCAGGCCCGAAGCGUGGCGGCACCUGCCGCCGGUGGUAAAAAAGAUCGGAAGAGCACACGUCU [U7C U11C C12A C13U] | 1.25
GGGUCGCUGUAUGAUAAUCGCGUGGAUAUGGCACGCAAGUUUCUACCGGGCACCGUAAAUGUCCGACUGGAGCCGUUCGGGCGGCUAUAAACAGACCUCAGGCCCGAAGCGUGGCGGCACCUGCCGCCGGUGGUAAAAAAGAUCGGAAGAGCACACGUCU [U7C U11A C12U C13G] | 1.17
GGGUCGCUGUAUAAUAAUCGCGUGGAUAUGGCACGCAAGUUUCUACCGGGCACCGUAAAUGUCCGACUGGAGCCGUUCGGGCGGCUAUAAACAGACCUCAGGCCCGAAGCGUGGCGGCACCUGCCGCCGGUGGUAAAAAAGAUCGGAAGAGCACACGUCU [U7C U11A C12U C13A] | 1.18
GGGUCGCUGUAUUAUAAUCGCGUGGAUAUGGCACGCAAGUUUCUACCGGGCACCGUAAAUGUCCGACUGGAGCCGUUCGGGCGGCUAUAAACAGACCUCAGGCCCGAAGCGUGGCGGCACCUGCCGCCGGUGGUAAAAAAGAUCGGAAGAGCACACGUCU [U7C U11A C12U C13U] | 1.16
GGGUCGCUGUCGGAUAAUCGCGUGGAUAUGGCACGCAAGUUUCUACCGGGCACCGUAAAUGUCCGACUGGAGCCGUUCGGGCGGCUAUAAACAGACCUCAGGCCCGAAGCGUGGCGGCACCUGCCGCCGGUGGUAAAAAAGAUCGGAAGAGCACACGUCU [U7C U11C C12G C13G] | 1.29
GGGUCGCUGUCGAAUAAUCGCGUGGAUAUGGCACGCAAGUUUCUACCGGGCACCGUAAAUGUCCGACUGGAGCCGUUCGGGCGGCUAUAAACAGACCUCAGGCCCGAAGCGUGGCGGCACCUGCCGCCGGUGGUAAAAAAGAUCGGAAGAGCACACGUCU [U7C U11C C12G C13A] | 1.21
GGGUCGCUGUAUCAUAAUCGCGUGGAUAUGGCACGCAAGUUUCUACCGGGCACCGUAAAUGUCCGACUGGAGCCGUUCGGGCGGCUAUAAACAGACCUCAGGCCCGAAGCGUGGCGGCACCUGCCGCCGGUGGUAAAAAAGAUCGGAAGAGCACACGUCU [U7C U11A C12U] | 1.18
GGGUCGCUGUCCCAUAAUCGCGUGGAUAUGGCACGCAAGUUUCUACCGGGCACCGUAAAUGUCCGACUGGAGCCGUUCGGGCGGCUAUAAACAGACCUCAGGCCCGAAGCGUGGCGGCACCUGCCGCCGGUGGUAAAAAAGAUCGGAAGAGCACACGUCU [U7C U11C] | 1.16
GGGUCGCUGUCACAUAAUCGCGUGGAUAUGGCACGCAAGUUUCUACCGGGCACCGUAAAUGUCCGACUGGAGCCGUUCGGGCGGCUAUAAACAGACCUCAGGCCCGAAGCGUGGCGGCACCUGCCGCCGGUGGUAAAAAAGAUCGGAAGAGCACACGUCU [U7C U11C C12A] | 1.1
GGGUCGCUGUCGCAUAAUCGCGUGGAUAUGGCACGCAAGUUUCUACCGGGCACCGUAAAUGUCCGACUGGAGCCGUUCGGGCGGCUAUAAACAGACCUCAGGCCCGAAGCGUGGCGGCACCUGCCGCCGGUGGUAAAAAAGAUCGGAAGAGCACACGUCU [U7C U11C C12G] | 1.35
GGGUCGCUGUAGGAUAAUCGCGUGGAUAUGGCACGCAAGUUUCUACCGGGCACCGUAAAUGUCCGACUGGAGCCGUUCGGGCGGCUAUAAACAGACCUCAGGCCCGAAGCGUGGCGGCACCUGCCGCCGGUGGUAAAAAAGAUCGGAAGAGCACACGUCU [U7C U11A C12G C13G] | 1.16
GGGUCGCUGUAGAAUAAUCGCGUGGAUAUGGCACGCAAGUUUCUACCGGGCACCGUAAAUGUCCGACUGGAGCCGUUCGGGCGGCUAUAAACAGACCUCAGGCCCGAAGCGUGGCGGCACCUGCCGCCGGUGGUAAAAAAGAUCGGAAGAGCACACGUCU [U7C U11A C12G C13A] | 1.11
GGGUCGCUGUAGUAUAAUCGCGUGGAUAUGGCACGCAAGUUUCUACCGGGCACCGUAAAUGUCCGACUGGAGCCGUUCGGGCGGCUAUAAACAGACCUCAGGCCCGAAGCGUGGCGGCACCUGCCGCCGGUGGUAAAAAAGAUCGGAAGAGCACACGUCU [U7C U11A C12G C13U] | 1.07
